# Laboratory results reported in patent US20230357348A1 (AstraZeneca / MedImmune, published 2023).
# Starred links: 1 amine or outer side, 2 acyl side, 3 side chain; linkers in the order of their positions; H or OH if unused. Non-standard residues stand in square brackets, D forms with d. Groups on a side chain read outwards from the residue. No end group written: not given here. *: point of attachment. C20 diacid = O=C(O)CCCCCCCCCCCCCCCCCCC(=O)*; C18 diacid = O=C(O)CCCCCCCCCCCCCCCCC(=O)*; γGlu = O=C(O)[C@H](CCC(=O)[*:2])N[*:1]; αMeF = C[C@](N)(Cc1ccccc1)C(=O)O; AEEA = NCCOCCOCC(=O)O; Aib = CC(C)(N)C(=O)O
# Experiments:
# [1] = biological target: human GLP-1 receptor (hGLP-1R) (human, UniProt P43220 24-463); test: cell-based or functional assay
# [2] = biological target: human glucagon receptor (hGCGR) (human, UniProt P47871 26-477); test: cell-based or functional assay
# human glucagon receptor (hGCGR), sequence (P47871 26-477): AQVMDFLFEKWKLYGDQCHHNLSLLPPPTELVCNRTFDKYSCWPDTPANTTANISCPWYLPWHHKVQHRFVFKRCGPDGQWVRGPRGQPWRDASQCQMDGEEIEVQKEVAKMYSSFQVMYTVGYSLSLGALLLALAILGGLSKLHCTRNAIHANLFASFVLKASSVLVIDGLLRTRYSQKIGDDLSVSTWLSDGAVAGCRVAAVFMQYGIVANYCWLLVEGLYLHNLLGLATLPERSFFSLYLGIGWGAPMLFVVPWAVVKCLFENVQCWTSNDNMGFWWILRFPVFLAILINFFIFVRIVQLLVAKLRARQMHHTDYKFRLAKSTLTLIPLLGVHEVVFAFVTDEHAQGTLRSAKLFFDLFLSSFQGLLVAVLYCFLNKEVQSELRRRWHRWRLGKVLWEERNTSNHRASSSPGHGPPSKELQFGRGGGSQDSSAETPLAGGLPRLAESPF
Binder,hGLP-1R EC50 (pM) [1] [pM],hGluc-R EC50 (pM) [2] [pM]
H[Aib]QGTFTSDVSK[αMeF]LDTK([AEEA-AEEA-γGlu-C18 diacid])RARDFVQWLLA[Aib]G-NH2 (N-terminus assumed; SMILES CC(C)C[C@H](NC(=O)[C@H](CC(C)C)NC(=O)[C@H](Cc1c[nH]c2ccccc12)NC(=O)[C@H](CCC(N)=O)NC(=O)[C@@H](NC(=O)[C@H](Cc1ccccc1)NC(=O)[C@H](CC(=O)O)NC(=O)[C@H](CCCNC(=N)N)NC(=O)[C@H](C)NC(=O)[C@H](CCCNC(=N)N)NC(=O)[C@H](CCCCNC(=O)COCCOCCNC(=O)COCCOCCNC(=O)CC[C@H](NC(=O)CCCCCCCCCCCCCCCCC(=O)O)C(=O)O)NC(=O)[C@@H](NC(=O)[C@H](CC(=O)O)NC(=O)[C@H](CC(C)C)NC(=O)[C@](C)(Cc1ccccc1)NC(=O)[C@H](CCCCN)NC(=O)[C@H](CO)NC(=O)[C@@H](NC(=O)[C@H](CC(=O)O)NC(=O)[C@H](CO)NC(=O)[C@@H](NC(=O)[C@H](Cc1ccccc1)NC(=O)[C@@H](NC(=O)CNC(=O)[C@H](CCC(N)=O)NC(=O)C(C)(C)NC(=O)[C@@H](N)Cc1c[nH]cn1)[C@@H](C)O)[C@@H](C)O)C(C)C)[C@@H](C)O)C(C)C)C(=O)N[C@@H](C)C(=O)NC(C)(C)C(=O)NCC(N)=O) [Peptide 474],8.04,56.9
H[Aib]QGTFTSDVSK[αMeF]LDTK([AEEA-AEEA-γGlu-C20 diacid])RARDFVQWLLA[Aib]G-NH2 (N-terminus assumed; SMILES CC(C)C[C@H](NC(=O)[C@H](CC(C)C)NC(=O)[C@H](Cc1c[nH]c2ccccc12)NC(=O)[C@H](CCC(N)=O)NC(=O)[C@@H](NC(=O)[C@H](Cc1ccccc1)NC(=O)[C@H](CC(=O)O)NC(=O)[C@H](CCCNC(=N)N)NC(=O)[C@H](C)NC(=O)[C@H](CCCNC(=N)N)NC(=O)[C@H](CCCCNC(=O)COCCOCCNC(=O)COCCOCCNC(=O)CC[C@H](NC(=O)CCCCCCCCCCCCCCCCCCC(=O)O)C(=O)O)NC(=O)[C@@H](NC(=O)[C@H](CC(=O)O)NC(=O)[C@H](CC(C)C)NC(=O)[C@](C)(Cc1ccccc1)NC(=O)[C@H](CCCCN)NC(=O)[C@H](CO)NC(=O)[C@@H](NC(=O)[C@H](CC(=O)O)NC(=O)[C@H](CO)NC(=O)[C@@H](NC(=O)[C@H](Cc1ccccc1)NC(=O)[C@@H](NC(=O)CNC(=O)[C@H](CCC(N)=O)NC(=O)C(C)(C)NC(=O)[C@@H](N)Cc1c[nH]cn1)[C@@H](C)O)[C@@H](C)O)C(C)C)[C@@H](C)O)C(C)C)C(=O)N[C@@H](C)C(=O)NC(C)(C)C(=O)NCC(N)=O) [Peptide 475],6.75,61.5
H[Aib]QGTFTSDVSK[αMeF]LDTK([AEEA-AEEA-γGlu-C20 diacid])RAQDFVRWLLA[Aib]G-NH2 (N-terminus assumed; SMILES CC(C)C[C@H](NC(=O)[C@H](CC(C)C)NC(=O)[C@H](Cc1c[nH]c2ccccc12)NC(=O)[C@H](CCCNC(=N)N)NC(=O)[C@@H](NC(=O)[C@H](Cc1ccccc1)NC(=O)[C@H](CC(=O)O)NC(=O)[C@H](CCC(N)=O)NC(=O)[C@H](C)NC(=O)[C@H](CCCNC(=N)N)NC(=O)[C@H](CCCCNC(=O)COCCOCCNC(=O)COCCOCCNC(=O)CC[C@H](NC(=O)CCCCCCCCCCCCCCCCCCC(=O)O)C(=O)O)NC(=O)[C@@H](NC(=O)[C@H](CC(=O)O)NC(=O)[C@H](CC(C)C)NC(=O)[C@](C)(Cc1ccccc1)NC(=O)[C@H](CCCCN)NC(=O)[C@H](CO)NC(=O)[C@@H](NC(=O)[C@H](CC(=O)O)NC(=O)[C@H](CO)NC(=O)[C@@H](NC(=O)[C@H](Cc1ccccc1)NC(=O)[C@@H](NC(=O)CNC(=O)[C@H](CCC(N)=O)NC(=O)C(C)(C)NC(=O)[C@@H](N)Cc1c[nH]cn1)[C@@H](C)O)[C@@H](C)O)C(C)C)[C@@H](C)O)C(C)C)C(=O)N[C@@H](C)C(=O)NC(C)(C)C(=O)NCC(N)=O) [Peptide 477],54.1,117
H[Aib]QGTFTSDVSK[αMeF]LDTK([AEEA-AEEA-γGlu-C18 diacid])RAQDFVRWLLE[Aib]K-NH2 (N-terminus assumed; SMILES CC(C)C[C@H](NC(=O)[C@H](Cc1c[nH]c2ccccc12)NC(=O)[C@H](CCCNC(=N)N)NC(=O)[C@@H](NC(=O)[C@H](Cc1ccccc1)NC(=O)[C@H](CC(=O)O)NC(=O)[C@H](CCC(N)=O)NC(=O)[C@H](C)NC(=O)[C@H](CCCNC(=N)N)NC(=O)[C@H](CCCCNC(=O)COCCOCCNC(=O)COCCOCCNC(=O)CC[C@H](NC(=O)CCCCCCCCCCCCCCCCC(=O)O)C(=O)O)NC(=O)[C@@H](NC(=O)[C@H](CC(=O)O)NC(=O)[C@H](CC(C)C)NC(=O)[C@](C)(Cc1ccccc1)NC(=O)[C@H](CCCCN)NC(=O)[C@H](CO)NC(=O)[C@@H](NC(=O)[C@H](CC(=O)O)NC(=O)[C@H](CO)NC(=O)[C@@H](NC(=O)[C@H](Cc1ccccc1)NC(=O)[C@@H](NC(=O)CNC(=O)[C@H](CCC(N)=O)NC(=O)C(C)(C)NC(=O)[C@@H](N)Cc1c[nH]cn1)[C@@H](C)O)[C@@H](C)O)C(C)C)[C@@H](C)O)C(C)C)C(=O)N[C@@H](CC(C)C)C(=O)N[C@@H](CCC(=O)O)C(=O)NC(C)(C)C(=O)N[C@@H](CCCCN)C(N)=O) [Peptide 478],9.18,190
H[Aib]QGTFTSDVSK[αMeF]LDTK([AEEA-AEEA-γGlu-C20 diacid])RAQDFVRWLLE[Aib]K-NH2 (N-terminus assumed; SMILES CC(C)C[C@H](NC(=O)[C@H](Cc1c[nH]c2ccccc12)NC(=O)[C@H](CCCNC(=N)N)NC(=O)[C@@H](NC(=O)[C@H](Cc1ccccc1)NC(=O)[C@H](CC(=O)O)NC(=O)[C@H](CCC(N)=O)NC(=O)[C@H](C)NC(=O)[C@H](CCCNC(=N)N)NC(=O)[C@H](CCCCNC(=O)COCCOCCNC(=O)COCCOCCNC(=O)CC[C@H](NC(=O)CCCCCCCCCCCCCCCCCCC(=O)O)C(=O)O)NC(=O)[C@@H](NC(=O)[C@H](CC(=O)O)NC(=O)[C@H](CC(C)C)NC(=O)[C@](C)(Cc1ccccc1)NC(=O)[C@H](CCCCN)NC(=O)[C@H](CO)NC(=O)[C@@H](NC(=O)[C@H](CC(=O)O)NC(=O)[C@H](CO)NC(=O)[C@@H](NC(=O)[C@H](Cc1ccccc1)NC(=O)[C@@H](NC(=O)CNC(=O)[C@H](CCC(N)=O)NC(=O)C(C)(C)NC(=O)[C@@H](N)Cc1c[nH]cn1)[C@@H](C)O)[C@@H](C)O)C(C)C)[C@@H](C)O)C(C)C)C(=O)N[C@@H](CC(C)C)C(=O)N[C@@H](CCC(=O)O)C(=O)NC(C)(C)C(=O)N[C@@H](CCCCN)C(N)=O) [Peptide 479],34.2,207
